Source: the supplement of paper PMC10724198
± gives the standard deviation of the averaged measurements.

Test system: Saccharomyces cerevisiae
Assay: protein stability index of tFT-peptide fusion (C-terminal peptide) (PSI (0-1 scale)); higher = more stable (slower turnover)
Details: genetic background: wild type; temperature: 30 C
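Also: PSI is a weighted mean of sequencing reads over stability bins, variants kept only with over 10 reads, mCherry proximal and sfGFP distal, peptide attached via GGGS linker.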

Sequence	protein stability index
SLWVSLSCFRVV	0.588 ± 0.028
SMAPDIQLYTAS	0.68901 ± 0.0006
SMEVRGLKVRSC	0.617 ± 0.015
SMFFNSIDATRW	0.721 ± 0.053
SMGLYRDVVSGH	0.665 ± 0.029
SMKAYRTLKTRL	0.636 ± 0.075
SMWNFPRLAKTR	0.685 ± 0.018
SNACHTTFGDPI	0.719 ± 0.0078
SNAFWVRPFKIG	0.667 ± 0.013
SNCLKHAYTTRT	0.6604 ± 0.0056
SNTVSRAPFLLA	0.681 ± 0.15
SNWGLYGCRLYP	0.759 ± 0.073
SPAASPSRPPPI	0.648 ± 0.025
SPAGQRPQVPVS	0.667 ± 0.075
SPALPPPAPRLL	0.719 ± 0.061
SPALSPCLRTGY	0.717 ± 0.062
SPAPQLFLPPPV	0.665 ± 0.052
SPCLLTLPVPFL	0.695 ± 0.017
SPCLTRSALPSP	0.687 ± 0.038
SPCVPTPSRPAS	0.685 ± 0.079
SPDFSVITKSYL	0.764 ± 0.032
SPDGVEILPIRG	0.684 ± 0.017
SPEFIQAIQNPV	0.724 ± 0.049
SPEVIHVVFCDL	0.697 ± 0.043
SPFEASSPQVLT	0.644 ± 0.0094
SPFLSLPHPSFP	0.6053 ± 0.0013

Sequence	protein stability index
SPFRATPYPLLP	0.6909 ± 0.0031
SPGDVVVAVGGG	0.6669 ± 0.0037
SPGLYGPLSRGM	0.684 ± 0.063
SPGNLPMSSSLL	0.686 ± 0.022
SPGSVIVSASLL	0.651 ± 0.039
SPHPPPPPSPPP	0.723 ± 0.059
SPISFIHPHISG	0.644 ± 0.017
SPLDSPPLSSPP	0.659 ± 0.028
SPLEFPLLPSGV	0.7 ± 0.064
SPLLPPPPSPPL	0.633 ± 0.081
SPLPPPLCPPPL	0.608 ± 0.034
SPLPPPPRPPLP	0.691 ± 0.039
SPLPPSRSVHCA	0.748 ± 0.072
SPLPRLPPGPLP	0.68 ± 0.03
SPLSLSFLLLCL	0.524 ± 0.028
SPLSPAVPSTAL	0.742 ± 0.056
SPLSPPHRHNTT	0.701 ± 0.017
SPLTCKSLRAQR	0.738 ± 0.022
SPPGTCPTIRPS	0.664 ± 0.014
SPPLLLPNLCPC	0.543 ± 0.023
SPPLPPPPPFPL	0.74 ± 0.053
SPPLPPTPPVTT	0.705 ± 0.19
SPPLSFPTLQLF	0.625 ± 0.15
SPPLTLPPYPPP	0.7149 ± 0.0031
SPPPALPPPRPL	0.749 ± 0.031
SPPPASDHPNPL	0.648 ± 0.063

Sequence	protein stability index
SPPPPPAPHPCP	0.686 ± 0.03
SPPPPPLPPSPR	0.713 ± 0.0078
SPPPPPPRPPPP	0.691 ± 0.015
SPPPPPPRSPPL	0.606 ± 0.0074
SPPPPPVHPSSP	0.722 ± 0.019
SPPPPYPSLFPL	0.677 ± 0.034
SPPPTPLPPPPP	0.628 ± 0.094
SPPQTETGAQRP	0.666 ± 0.051
SPPRAGTPTSRP	0.667 ± 0.097
SPPRPPRPRYLF	0.6947 ± 0.0062
SPPSPGLDPVCP	0.66 ± 0.089
SPPSRLRPAILP	0.668 ± 0.032
SPPTCPNQLGPP	0.7 ± 0.074
SPPVPPLPAPAT	0.539 ± 0.012
SPPYPPPPVAST	0.707 ± 0.013
SPQFLLPRALSP	0.695 ± 0.0042
SPRFSPPAILHN	0.71 ± 0.0091
SPRKTAVIGGTT	0.688 ± 0.034
SPRLPAPPPPPQ	0.702 ± 0.075
SPRLPPSPPPDL	0.628 ± 0.023
SPRLRSRQVALS	0.556 ± 0.17
SPRLSAPPPPPP	0.6766 ± 0.0046
SPSLPSLNRCSL	0.769 ± 0.016
SPSPLPLSPSPL	0.749 ± 0.086
SPSPPSFRPSLH	0.712 ± 0.12
SPSPPSNPLPSP	0.701 ± 0.024

Sequence	protein stability index
SPSPSSLPPPLR	0.726 ± 0.052
SPSRPQPPPLSA	0.738 ± 0.061
SPSSPPSKCLSL	0.688 ± 0.039
SPSSSPSPFPVP	0.731 ± 0.063
SPSVRSPFSLPP	0.7383 ± 0.0052
SPTPHTLRLLPT	0.662 ± 0.011
SPTPTSLTPPDF	0.733 ± 0.049
SPVGCYAIIARM	0.628 ± 0.042
SPVHPSQHLWPP	0.615 ± 0.021
SPVRSQPALLVV	0.565 ± 0.0096
SPWFRSAASTPT	0.786 ± 0.082
SQLAGPPLPPPT	0.751 ± 0.021
SRAPHPPPPTLP	0.711 ± 0.021
SRARADTSRRRA	0.7061 ± 0.0059
SRCFGGRCQVIE	0.67 ± 0.02
SRFPPYALAHRP	0.716 ± 0.2
SRGGKMRPGGGG	0.711 ± 0.012
SRGVSIQQSIKI	0.726 ± 0.037
SRHGFLVNMCTL	0.683 ± 0.028
SRHGRTTKDFLQ	0.682 ± 0.014
SRISSGKFTGAV	0.601 ± 0.041
SRKKSKQYRQEK	0.716 ± 0.039
SRLGFPFTGGGR	0.6597 ± 0.0062
